Data as given in US6391608.

Test system: PleI restriction endonuclease (Pseudomonas lemoignei)
Assay: cleavage_in_vitro
Conditions: approximate yield of recombinant PleI; five of six clones active; recognition site not given

“DNA substrate with PleI sites (sequence not stated)” was tested, and the activity (units/gram of cells) was 100000.
